Where two headings read alike, the source gives them in different places. Marks after values point to notes of the source that are not given here.
What was measured:
RC-RNase4 = experiment: In vivo Met removal, co-expression in E. coli, RC-RNase 4 substrate; assay type: cell-based, Rana catesbeiana; settings: solubility −
RC-RNase2 = RC-RNase2 (Escherichia coli, UniProt P0AE18, M206T/Q233G); settings: substrate MQNEW (SEQ ID NO:17)-RC2; solubility −
Excerpt: (§1) The rpr (AF332139) gene encoding for the target protein, onconase, from Rana pipiens was tagged with NdeI and BamHI site at the 5′ and 3′ end, respectively, and inserted downstream of T7 promoter in the expression vector pET22b (Novagen) (Liao et al., 2003; Huang et al., 1998; Liao et al., 2000). The other target proteins were also cloned by the same method, including RC-RNase L1 (AF288642.2), RC-RNase 2 (AF242553), RC-RNase 3 (AF242554), RC-RNase 4 (AF242555), RC-RNase6 (AF242556) from Rana catesbeiana, CA150 (a transcription elongation regulator 1; NM_006706) and glutathione S-transferase (M14654).
(§2) The Escherichia coli methionine aminopeptidase gene (Accession Number M 15106) or its mutant was fused with the T7 promoter by three steps of PCR and inserted into the same pET22b vector containing a target protein, as described above, through SacI and HindIII. […] The second PCR was performed using the PCR product from step 1 as 5′ megaprimer, oligonucleotide 3 (5′[…]3′; SEQ ID NO:4) as 3′ primer, and the E. coli MetAP gene (M15101) as template (Huang et al., 1998; Ben-Bassat et al., 1987). The third PCR was to amplify the second PCR product using oligonucleotide 1 and oligonucleotide 3 as primers. The genes encoding the target protein and E. coli MetAP have their own T7 RNA polymerase promoter, but they may be transcribed into the same RNA molecule for cotranslation because only one transcription terminator exists, downstream of the MetAP gene. Alternatively, the MetAP gene alone may be directly subcloned into vector pET29b through the SacI and HindIII site.
(§3) The MetAP was expressed alone or co-expressed with a target protein, i.e., onconase and RC-RNaseL1, in E. coli BL21 (DE3) in the presence of 0.5 mM IPTG at 37° C.
(§4) Proteins in the cell pellet or in the soluble fraction were separated by 13.3% SDS-PAGE and contact-transferred to ProBlott™ membrane (Applied Bioystems) in transfer buffer (10 mM Tris-HCl, pH 7.5, 50 mM NaCl, 2 mM EDTA, 0.5 mM 2-mercaptoethanol) overnight. The five N-terminal residues of the transferred protein were determined by Edman degradation. The percentage of Met removal was calculated by dividing the amount of proteins initiated with the penultimate residue with the amount of total proteins (including proteins initiated with the penultimate residue and unprocessed protein initiated with Met) after the first degradation cycle. In theory, this percentage should remain the same after each degradation cycle. Therefore, in order to avoid experimental variation, the same calculation was made from five consecutive degradation cycles, e.g., M, Q, N, W and L for onconase. The efficiency of Met removal is reported as the mean values of at least three cycles. The mass spectrum analysis was carried out as described previously (Liao et al., 2003).

RC-RNase6 = RC-RNase6 (Escherichia coli, UniProt P0AE18, M206T/Q233G); settings: substrate MQDWD (SEQ ID NO:12)-RC6; solubility −
Excerpt: as §1, §2, §3, §4

RC-RNase3 = RC-RNase3 (Escherichia coli, UniProt P0AE18, M206T/Q233G); settings: substrate MQDWE (SEQ ID NO:11)-RC3; solubility −
Excerpt: as §1, §2, §3, §4

RC-RNaseL1 = RC-RNaseL1 (Escherichia coli, UniProt P0AE18, M206T/Q233G); settings: solubility −
Excerpt: as §1, §2, §3, §4

[1] = target: glutathione S-transferase (GST) (Escherichia coli, UniProt P0AE18, M206T/Q233G); settings: substrate MQDIL (SEQ ID NO:21)-GST
Excerpt: as §1, §2, §3, §4

[2] = target: CA150, a transcription elongation regulator 1 (Escherichia coli, UniProt P0AE18, M206T/Q233G); settings: substrate MLAGA (SEQ ID NO:20)-CA150; solubility +
Excerpt: as §1, §2, §3, §4

[3] = substrate MAAWA (SEQ ID NO:15)-RC4
[4] = substrate MAPWA (SEQ ID NO:16)-RC4
[5] = substrate MQAWA (SEQ ID NO:14)-RC4
[6] = substrate MQNWA (SEQ ID NO:18)-RCL1

B1: MetAP-*TG (protein)
chain: AISIKTPEDIEKMRVAGRLAAEVLEMIEPYVKPGVSTGELDRICNDYIVNEQHAVSACLGYHGYPKSVCISINEVVCHGIPDDAKLLKDGDIVNIDVTVIKDGFHGDTSKMFIVGKPTIMGERLCRITQESLYLALRMVKPGINLREIGAAIQKFVEAEGFSVVREYCGHGIGRGFHEEPQVLHYDSRETNVVLKPGMTFTIEPTVNAGKKEIRTMKDGWTVKTKDRSLSAGYEHTIVVTDNGCEILTLRKDDTIPAIISHDE
- Catalytic activity (%): percent of penultimate residue removed (RC-RNase4; [3]): 18%
- Catalytic activity (%): removal of N-terminal Met (RC-RNase4; [3]): 100%
- Catalytic activity (%): percent of penultimate residue removed (RC-RNase4; [4]): 63%
- Catalytic activity (%): removal of N-terminal Met (RC-RNase4; [4]): 79%
- Catalytic activity (%): percent of penultimate residue removed (RC-RNase4; [5]): 100 (100)^c %
- Catalytic activity (%): removal of N-terminal Met (RC-RNase4; [5]): 100 (100)^c %
- Catalytic activity (%): removal of N-terminal Met (RC-RNase4; substrate MQDWA (SEQ ID NO:13)-RC4): 93%
- Catalytic activity (%): percent of penultimate residue removed (RC-RNase2): 56%
- Catalytic activity (%): removal of N-terminal Met (RC-RNase2): 80%
- Catalytic activity (%): removal of N-terminal Met (RC-RNase6): 82%
- Catalytic activity (%): removal of N-terminal Met (RC-RNase3): 96%
- Catalytic activity (%): removal of N-terminal Met (RC-RNaseL1; substrate MQDWA (SEQ ID NO:19)-RCL1): 99%
- Catalytic activity (%): percent of penultimate residue removed (RC-RNaseL1; [6]): 62%
- Catalytic activity (%): removal of N-terminal Met (RC-RNaseL1; [6]): 96%
- Catalytic activity (%): removal of N-terminal Met ([1]; solubility +, same vector): 87%
- Catalytic activity (%): removal of N-terminal Met ([1]; solubility +, target in pET22b co-transformed with MetAP in pET29b): 71%
- Catalytic activity (%): removal of N-terminal Met ([1]; solubility −, same vector): 85%
- Catalytic activity (%): removal of N-terminal Met ([1]; solubility −, target in pET22b co-transformed with MetAP in pET29b): 70%
- Catalytic activity (%): percent of penultimate residue removed [2]: 71%
- Catalytic activity (%): removal of N-terminal Met [2]: 100%
